A short description of the data set: soluble on expression in E. coli; label from the status in PepcDB or PDB records.
Consider “MATAAETSASEPEAESKAGPKADGEEDEVKAARTRRKVLSRAVAAATYKTMGPAWDQQEEGVSESDGDEYAMASSAESSPGEYEWEYDEEEEKNQLEIERLEEQLSINVYDYNCHVDLIRLLRLEGELTKVRMARQKMSEIFPLTEELWLEWLHDEISMAQDGLDREHVYDLFEKAVKDYICPNIWLEYGQYSVGGIGQKGGLEKVRSVFERALSSVGLHMTKGLALWEAYREFESAIVEAARLEKVHSLFRRQLAIPLYDMEATFAEYEEWSEDPIPESVIQNYNKALQQLEKYKPYEEALLQAEAPRLAEYQAYIDFEMKIGDPARIQLIFERALVENCLVPDLWIRYSQYLDRQLKVKDLVLSVHNRAIRNCPWTVALWSRYLLAMERHGVDHQVISVTFEKALNAGFIQATDYVEIWQAYLDYLRRRVDFKQDSSKELEELRAAFTRALEYLKQEVEERFNESGDPSCVIMQNWARIEARLCNNMQKARELWDSIMTRGNAKYANMWLEYYNLERAHGDTQHCRKALHRAVQCTSDYPEHVCEVLLTMERTEGSLEDWDIAVQKTETRLARVNEQRMKAAEKEAALVQQEEEKAEQRKRARAEKKALKKKKKIRGPEKRGADEDDEKEWGDDEEEQPSKRRRVENSIPAAGETQNVEVAAGPAGKCAAVDVEPPSKQKEKAASLKRDMPKVLHDSSKDSITVFVSNLPYSMQEPDTKLRPLFEACGEVVQIRPIFSNRGDFRGYCYVEFKEEKSALQALEMDRKSVEGRPMFVSPCVDKSKNPDFKVFRYSTSLEKHKLFISGLPFSCTKEELEEICKAHGTVKDLRLVTNRAGKPKGLAYVEYENESQASQAVMKMDGMTIKENIIKVAISNPPQRKVPEKPETRKAPGGPMLLPQTYGARGKGRTQLSLLPRALQRPSAAAPQAENGPAAAPAVAAPAATEAPKMSNADFAKLFLRK”, for which the “soluble on expression in E. coli” value is “soluble”.

“MSLQDDDFSLFKSEMRGVKRISVDRADTGKPRNDRQQLKQRQLNASVRNDEIRVDGLSDQFVIDVGPEDELSWARDGVQESQLRKLKQGLVPFDGSLDLHGMSVEKARQTLWDFLAEATRLEIRCVRVTHGKAARKDGRSPLVKSHVNTWLRQHPQVLGFTSCLPRHGGTGSVYVMLRRTMLEGRDEEGHHHHHH”: the “soluble on expression in E. coli” value is recorded as “soluble”.

Turning to “MGSDKIHHHHHHMLLAVDHTTHYVFSGPVSHGLQRLRLAPKSTAGQRVVEWSMQFEGARLQAEYDDANNNRVSLISFDPGVSQVTIRCEGLVDTNDEAGIIGKHAGFMPMWQFLEQTDLTRAGARTRALLAALPHEDSTLVKLHALSALVRERVEYASGHTDVDTTAEGALAAGRGVCQDHAHIFIGAARALGIPARYACGYLMMDDRVEQDAGHAWAEAHVESLGWVGFDVSNGISPDARYIRVATGRDYRDAAPVTGIRYGAMDEAMHVRLAVQQQRVEQ”, the “soluble on expression in E. coli” value is on record as “not soluble”.

With “MAYRDQPLGELALSIPRASALFRKYDMDYCCGGKQTLARAAARKELDVEVIEAELAKLAEQPIEKDWRSAPLAEIIDHIIVRYHDRHREQLPELILQATKVERVHADKPSVPKGLTKYLTMLHEELSSHMMKEEQILFPMIKQGMGSQAMGPISVMESEHDEAGELLEVIKHTTNNVTPPPEACTTWKAMYNGINELIDDLMDHISLENNVLFPRALAGE”, the “soluble on expression in E. coli” value is “not soluble”.

Turning to “VEREVLMNGTQAVAHAAMYADVDVVAAYPIRPYTEVMDTISKLIADGELDAEFIVAEGEHGQFETVKHASLAGARTLVGSSGVGWLYAMEAIVVTATDRAPVVAIIGNRALDDPGAYGVEHNDALMVRDVGWLLVWVDTAQEAFDTALLAYRIAEDQRVLLPLGISMDGGFLTHSEQIVRLPPRELVKNFLPPYNRGKYLVHPDNPITVAPQVNEDWVMEIRRQHEEAMERARSVIVEAYEEFKKVFGRYPGSTSDLQMPE”, the “soluble on expression in E. coli” value was “not soluble”.

Take “MSLKFAFIAKHRSIWPVAWLCEALGVSRSGFHAWFNRSPSEHARHDEVLLERIKQSFQSSDRTYGARRVWHDVLEEGLSCGLHRIERLMRLNALRARPRRRGFPKDAGDRPVVMPNVLDRQFVADRPNQKWVADFTYIWTAEGWLYVAAVIDLFSRRVVGWSMNANMTAQLVTDALIMAIWRRGKPDALLHHSDQGSQYTSEQFQRLMGDHGITCSMSRSGNVWDNAAMESFFSSLKTERTARKVYRTRNDARADVFDYIERFYNPKRRHSTLGYLSPDDFETKVGLAEGHHHHHH”: the “soluble on expression in E. coli” value is recorded as “not soluble”.

As to “FVRMIFSAEKSVWIQTPYLIPDDSMINALLVAVRSGVDVRIMIPCMPDHPFIYRATQYYANYLHKRGIKIYIYDSGFIHAKTMVIDDELAMVGTTNQDIRSYSLNFEVSTFIYNPDIAWMLAQVFEEDIEKSVLLTDEIIKKQGYWLRFKQNFSRLLSPVL”, the “soluble on expression in E. coli” value was “not soluble”.

Regarding “MTEQTFSIREAVPTDADQLLSVMSKIGSETPYLVMDERGMAMSTTELAENLATLYESPNNVLLVALAGEAIIGTASVSASSKKRMEHIGEIGISILKEYWGYGLGSILMEELIRWAHESHVIRRLELTVQDRNQRAIHVYKKLGFETEAIMPRGAKTDQGEFLDVHLMRLLID”, the “soluble on expression in E. coli” value is listed as “not soluble”.

With “MYRTPAAIVADATVGIPLVRFVTEEMEMTPELVALYTSHRSVWELLEGELKSLGLNPKVVYGTDVYKTRKSLQEVRPRVVFGSTIERHASEGLPVAYVVEVVRMMRQFRMINREYFGYTGILNLLECVQNEWVMGWRSKELEHHHHHH”, the “soluble on expression in E. coli” value was “not soluble”.

“MAHHHHHHMSSVLKADVKEYIPSWANKRSSGVNPAATSTNKNGFATSVPTSNVMTTHSGCTGINAQNFTSSPRAAAGLPLCSPTTALRLPTRMSPMHAPFPSVSISMNPNATDFVPHLTGANSLAPLPTSTADLAEEKERQQKQESHLSSSMKWTTTSTRKNITQPALPLAVKANFTPTFAPIYVEKTEEEILEISKRSSLKVGAAAFVPRRTLNRVMIAKPSPFSLTPATGEMTLGDLWCLFYLPAGLGECIRENTYDPTLVFRVDSVATFWKVFNNIPQPTEMKIGTLYFFRDGINPKWEDPGNRDGGILKMKLDSHCINDAWVYLLCRTIGESWSKSVRDTVNGVALKARERAYLLEVWVTEQSAELMMDISELLRPLLGDVFSVFYAPHSVTQERAAAAALAEKKRSRNNRRRW”: the “soluble on expression in E. coli” value is “not soluble”.

Regarding “MDIARPSCYETVRNDDDKKSSDADIYNTSVKLEDPSAPSHDEQWTYNFFITPLNLNISPTDFKIPNDKSVKYTVKCEAKIKQDLIVQVHSLFFEIVGARCKRGVTSQEFHILSENETMTFEVGMKDLNNVSYENYQAANLLSPAGFITFTHFKSLRKDDASWGVKDPKKLMKVVTKGDGGRYNLEKLLVETETDSIKKISEDFAMILQQGMDDKRTKEQEMKMGNMEMFATEEYVEKWKKDKKAIEIAQKNQREWNDKKLEKPGMQKKKEKKCNIM”, the “soluble on expression in E. coli” value was “not soluble”.

“KTKALIIEDKTLTDDQRKEQLLGVDTEYAKGIENIDAAKDAAGVDKAYSDGVRDILAQYKEGQNLNDRRNAAKEFL”: the “soluble on expression in E. coli” value is given as “not soluble”.

For “MASNEKTRYKAIIADHTYTIIGQESKQHMDLVTKIVNEQLAEIKHLSPQTDTEQASVLLAINAISDQLKKQEYALKLEKQVADLKQKTIRLAELENRVRRMEIIEEEARDVLKKNGQEDVEIHNHVEAQQILNENRKQQIQNKGVSE”, the “soluble on expression in E. coli” value is on record as “not soluble”.

For “LYRKGGVYVVIGGAGYIGEAWSEYMIRRYQAQIVWIGRSQLNAAIQSKIDRLSALGPEPFYIAADAADKHSLQQAYEQVKKRHPHIHGIVHSAMVLFEQSLEKMKPEEFTAGLAAKIDVSIRMAQVFRQENVDFVLFFSSLVAHIKNVKQSHYASGCTFADAFAHQLSQSWA”, the “soluble on expression in E. coli” value was “not soluble”.

“MGLFLEDLAVGDRFDSARHRVEAAAIKAFAGEFDPQPFHLDEEAARHSLFGGLAASGWHTAAITMRLLVTSGLPLAQGIIGAGTELSWPNPTRPGDELHVETTVLAITPSKSRPDRAIVTCQSDTLNQRGEVVQRSTAKVVVFRRPLEHHHHHH”: the “soluble on expression in E. coli” value is “soluble”.

Take “MGSDKIHHHHHHMQVEGLSINLATIREQCGFAEAVDICLKHGITAIAPWRDQVAAIGLGEAGRIVRANGLKLTGLCRGGFFPAPDASGREKAIDDNRRAVDEAAELGADCLVLVAGGLPGGSKNIDAARRMVVEGIAAVLPHARAAGVPLAIEPLHPMYAADRACVNTLGQALDICETLGPGVGVAIDVYHVWWDPDLANQIARAGKMKAILAHHICDWLVPTKDMLTDRGMMGDGVIDLKGIRRRIEAAGFHGAQEVEIFSADNWWKRPADEVIATCVERYRNCC”: the “soluble on expression in E. coli” value is “not soluble”.

The record behind these values is the DeepSol protein solubility set.
